# Results reported in patent US20240197834A1 (HANMI PHARM, published 2024).
# Square brackets hold non-standard residues; d marks the D form. Ends that are not written are not given here. Aib = CC(C)(N)C(=O)O
# B1: glucagon derivative of SEQ ID NO: 10 (peptide)
# peptide: Y[Aib]QGTFTSDYSKYLDSCDADDFVVWLINT
# B2: glucagon derivative of SEQ ID NO: 11 (peptide)
# peptide: Y[Aib]QGTFTSDYSKYLDEKCAKEFVQWLMNT
# B3: glucagon derivative of SEQ ID NO: 13 (peptide)
# peptide: Y[Aib]QGTFTSDYSCYLDSRRAQDFVQWLMNT
# B4: glucagon derivative of SEQ ID NO: 14 (peptide)
# peptide: Y[Aib]QGTFTSDYSKYLDCKRAKEFVQWLMNT
# B5: glucagon derivative of SEQ ID NO: 15 (peptide)
# peptide: Y[Aib]QGTFTSDYSKYLCEKRAQDFVVWLMNT
# B6: glucagon derivative of SEQ ID NO: 16 (peptide)
# peptide: Y[Aib]QGTFTSDYSKYLDCRRAQVFVQWLMRT
# B7: glucagon derivative of SEQ ID NO: 17 (peptide)
# peptide: Y[Aib]QGTFTSDYSKYLDCVRAQDFVQWLMRT
# B8: glucagon derivative of SEQ ID NO: 18 (peptide)
# peptide: Y[Aib]QGTFTSDYSKYLDSRRACDFRLWLMNT
# B9: glucagon derivative of SEQ ID NO: 2 (peptide)
# peptide: HSQGTFTSDYSKYLDCDRAQDFVQWLMNT
# B10: glucagon derivative of SEQ ID NO: 3 (peptide)
# peptide: HSQGTFTSDYSKYLDCERAQDFVQWLMNT
# B11: glucagon derivative of SEQ ID NO: 33 (peptide)
# peptide: YXQGTFTSDYSKYLDSRRAQDFVQWLMNT
# modifications: aminoisobutyric acid (Aib) at position 2 (printed X)
# B12: glucagon derivative of SEQ ID NO: 4 (peptide)
# peptide: HSQGTFTSDYSKYLDSCDAQDFVQWLMNT
# B13: glucagon derivative of SEQ ID NO: 42 (peptide)
# peptide: Y[Aib]QGTFCSDYSKYLDSRRAQDFVQWLMNT
# B14: glucagon derivative of SEQ ID NO: 43 (peptide)
# peptide: Y[Aib]QGTFTSDCSKYLDSRRAQDFVQWLMNT
# B15: glucagon derivative of SEQ ID NO: 44 (peptide)
# peptide: YXQGTFTSDYSKYLDSRRAQDFVQWLMNTC
# modifications: aminoisobutyric acid (Aib) at position 2 (printed X)
# B16: glucagon derivative of SEQ ID NO: 45 (peptide)
# peptide: Y[Aib]QGTFTSDYSCYLDEKRAKEFVQWLMNT
# B17: glucagon derivative of SEQ ID NO: 5 (peptide)
# peptide: HSQGTFTSDYSKYLDSCEAQDFVQWLMNT
# B18: glucagon derivative of SEQ ID NO: 6 (peptide)
# peptide: HSQGTFTSDYSKYLDSCEADDFVQWLMNT
# B19: glucagon derivative of SEQ ID NO: 7 (peptide)
# peptide: YSQGTFTSDYSKYLDSCEADDFVQWLMNT
# Molecular target: glucagon receptor
# Experiment: cell-based or functional assay
row,Binder,"In vitro activity (Relative Activity to SEQ ID NO: 1, %) [%]"
1,B1,< 0.1
2,B2,4.6
3,B3,5.2
4,B4,18.1
5,B5,1.1
6,B6,4.2
7,B7,23.2
8,B8,< 0.1
9,B9,0.6
10,B10,6.1
11,B11,108
12,B12,< 0.1
13,B13,37.9
14,B14,1.6
15,B15,75.4
16,B16,5.2
17,B17,0.3
18,B18,< 0.1
19,B19,< 0.1
